Source: the Immune Epitope Database (IEDB)
pKd: −log10 of the molar value.

Tests used:
[1] = biological target: HLA-A*02:01; assay: IEDB peptide-MHC binding, purified MHC/direct/fluorescence; filed as Kd, often an IC50 or EC50 that approximates it; ≥ and ≤ were set here for values at or beyond the usual limits of such assays
[2] = biological target: HLA-A*02:06; assay: as above
[3] = biological target: HLA-A*02:11; assay: as above; settings: source organism: Entamoeba histolytica HM-1:IMSS
[4] = biological target: HLA-A*02:12; assay: as above; settings: source organism: Entamoeba histolytica HM-1:IMSS
[5] = biological target: HLA-A*02:16; assay: as above
[6] = biological target: HLA-A*02:19; assay: as above; settings: source organism: Entamoeba histolytica HM-1:IMSS
[7] = biological target: HLA-A*03:01; assay: as above
[8] = biological target: HLA-A*23:01; assay: as above
[9] = biological target: HLA-A*24:03; assay: as above
[10] = biological target: HLA-A*26:01; assay: as above; settings: source organism: Entamoeba histolytica HM-1:IMSS
[11] = biological target: HLA-A*29:02; assay: as above
[12] = biological target: HLA-B*15:01; assay: as above
[13] = biological target: HLA-B*15:17; assay: as above
[14] = biological target: HLA-B*27:03; assay: as above
[15] = biological target: HLA-B*39:01; assay: as above
[16] = biological target: HLA-B*40:01; assay: as above; settings: source organism: Entamoeba histolytica HM-1:IMSS
[17] = biological target: HLA-B*46:01; assay: as above
[18] = biological target: HLA-B*51:01; assay: as above
[19] = biological target: HLA-B*57:01; assay: as above
[20] = biological target: HLA-A*01:01; assay: IEDB peptide-MHC binding, purified MHC/competitive/fluorescence; filed as Kd, often an IC50 or EC50 that approximates it; ≥ and ≤ were set here for values at or beyond the usual limits of such assays
[21] = biological target: HLA-A*11:01; assay: as above
[22] = biological target: HLA-A*30:01; assay: as above
[23] = biological target: HLA-A*30:02; assay: as above
[24] = biological target: HLA-A*66:01; assay: as above
[25] = biological target: HLA-B*07:02; assay: as above
[26] = biological target: HLA-B*08:01; assay: as above
[27] = biological target: HLA-B*14:02; assay: as above
[28] = biological target: HLA-B*27:05; assay: as above
[29] = biological target: HLA-B*44:02; assay: as above
[30] = biological target: HLA-B*53:01; assay: as above
[31] = biological target: HLA-B*58:01; assay: as above
[32] = biological target: HLA-A*68:02; assay: IEDB peptide-MHC binding, purified MHC/direct/fluorescence; filed as Kd, often an IC50 or EC50 that approximates it; ≥ and ≤ were set here for values at or beyond the usual limits of such assays; settings: source organism: Burkholderia mallei ATCC 23344
[33] = biological target: HLA-B*18:01; assay: as above; settings: source organism: Burkholderia mallei ATCC 23344
[34] = biological target: HLA-B*40:01; assay: IEDB peptide-MHC binding, purified MHC/competitive/fluorescence; filed as Kd, often an IC50 or EC50 that approximates it; ≥ and ≤ were set here for values at or beyond the usual limits of such assays; settings: source organism: Burkholderia mallei SAVP1
[35] = biological target: HLA-A*02:03; assay: IEDB peptide-MHC binding, purified MHC/direct/fluorescence; filed as Kd, often an IC50 or EC50 that approximates it; ≥ and ≤ were set here for values at or beyond the usual limits of such assays; settings: source organism: Variola virus
[36] = biological target: HLA-A*69:01; assay: as above; settings: source organism: Camelpox virus CMS
[37] = source organism: Entamoeba histolytica HM-1:IMSS
[38] = source organism: Burkholderia mallei ATCC 23344
[39] = source organism: Burkholderia mallei SAVP1

Which results are given for IESNPLFPV?
pKd [1, 37]: ≤ 4.70; pKd [2, 37]: 7.47; pKd [3]: ≤ 4.70; pKd [4]: 6.04; pKd [5, 37]: ≤ 4.70; pKd [6]: ≤ 4.70; pKd [7, 37]: ≤ 4.70; pKd [8, 37]: ≤ 4.70; pKd [9, 37]: ≤ 4.70; pKd [10]: ≤ 4.70; pKd [11, 37]: ≤ 4.70; pKd [12, 37]: ≤ 4.70; pKd [13, 37]: ≤ 4.70; pKd [14, 37]: ≤ 4.70; pKd [15, 37]: ≤ 4.70; pKd [16]: 7.29; pKd [17, 37]: ≤ 4.70; pKd [18, 37]: ≤ 4.70; pKd [19, 37]: ≤ 4.70; pKd [20, 37]: ≤ 5.30; pKd [21, 37]: ≤ 5.30; pKd [22, 37]: ≤ 5.30; pKd [23, 37]: ≤ 5.30; pKd [24, 37]: ≤ 5.30; pKd [25, 37]: ≤ 5.30; pKd [26, 37]: ≤ 5.30; pKd [27, 37]: ≤ 5.30; pKd [28, 37]: ≤ 5.30; pKd [29, 37]: ≤ 5.30; pKd [30, 37]: ≤ 5.30; pKd [31, 37]: ≤ 5.30

How did the pKd [1, 38] turn out when NVMDPMHGA was run?
Its pKd is ≤ 4.70.

What about the pKd [5, 38] of the same sequence?
The pKd was ≤ 4.70.

What about the pKd [7, 38] of the same sequence?
The pKd was ≤ 4.70.

And the pKd [8, 38]?
The pKd was ≤ 4.70.

And the pKd [9, 38]?
The pKd was ≤ 4.70.

And the pKd [11, 38]?
Its pKd is ≤ 4.70.

What about the pKd [32] of the same sequence?
The pKd was ≥ 9.00.

And the pKd [12, 38]?
The pKd was ≤ 4.70.

And the pKd [13, 38]?
Its pKd is ≤ 4.70.

And the pKd [33]?
The pKd was ≤ 4.70.

And the pKd [14, 38]?
The pKd was ≤ 4.70.

And the pKd [15, 38]?
The pKd was ≤ 4.70.

What about the pKd [17, 38] of the same sequence?
The pKd was ≤ 4.70.

What about the pKd [18, 38] of the same sequence?
The pKd was ≤ 4.70.

What about the pKd [19, 38] of the same sequence?
Its pKd is ≤ 4.70.

What about the pKd [20, 39] of the same sequence?
Its pKd is ≤ 5.30.

And the pKd [21, 39]?
Its pKd is ≤ 5.30.

What about the pKd [22, 39] of the same sequence?
Its pKd is ≤ 5.30.

And the pKd [23, 39]?
The pKd was ≤ 5.30.

And the pKd [24, 39]?
The pKd was ≤ 5.30.

What about the pKd [25, 39] of the same sequence?
Its pKd is ≤ 5.30.

And the pKd [26, 39]?
The pKd was ≤ 5.30.

And the pKd [27, 39]?
The pKd was ≤ 5.30.

And the pKd [28, 39]?
Its pKd is ≤ 5.30.

And the pKd [34]?
The pKd was ≤ 5.30.

What about the pKd [29, 39] of the same sequence?
The pKd was ≤ 5.30.

What about the pKd [30, 39] of the same sequence?
Its pKd is ≤ 5.30.

And the pKd [31, 39]?
The pKd was ≤ 5.30.

With DLYDMIHNV as the sequence, how does the pKd ([1]; source organism: Camelpox virus CMS) read?
Its pKd is 7.80.

What about the pKd [35] of the same sequence?
The pKd was 8.22.

And the pKd ([2]; source organism: Variola virus)?
The pKd was 7.12.

What about the pKd [36] of the same sequence?
Its pKd is 8.70.
